B1: 17D5 (VHH)
VHH: EVQLVESGGGLVQPGGSLRLSCAASGIIGTIRTMAWYRQAPGKQRDWVASIGTRGAPVYADSVNGRFTISRDGATNTVFLQMNNLKPEDTAVYYCRDVNRDYWGQGTQVTVSS
notes: C-term myc-His6 tag
B2: 13D10 (VHH)
VHH: EVQLVESGGGLVQPGGSLRLSCAASSVITLDSNAIGWFRQAPGKEREEVSCIASSDGSTYYAESVKGRFTISKDYTRNTVYLQVNSLKPEDTAVYHCATDANPNCGLNVWNSWGQGTQVTVSS
notes: C-term myc-His6 tag
B3: 17A3 (VHH)
VHH: EVQLVESGGGLVQAGGSLSLSCAASATLHRFDNNWYRQAPGKQRELVATIAHDGSTNYANSVKGRFTISRDNARDTLFLQMHALQPEDTAVYMCNLHRWGLNYWGQGTQVTVSS
notes: C-term myc-His6 tag
B4: 13D4 (VHH)
VHH: EVQLVESGGGLVQAGGSLRLSCVVSGIPSSIRAMAWYRQAPGRQRDWVATIYSPSGSAVYADSVKGRFTISSDNAKSTIYLQMNSLEPDDTAVYYCRDVNREYWGQGTQVTVSS
notes: C-term myc-His6 tag
B5: 15G5 (VHH)
VHH: EVQLVESGGGLVQAGGSLRLSCVVSGIPSTIRAMAWYRQAPGRQRDWVATIYSPSGSAVYADSVKGRFTISSDNAKKTIYLQMNSLKPDDTAVYYCRDVNREYWGQGTQVTVSS
notes: C-term myc-His6 tag
B6: 15B11 (VHH)
VHH: EVQLVESGGGSVQAGGSLRLSCVVSGIPSSIRAMAWYRQAPGRQRDWVATIYSRSGGAVYADSVKGRFTISSDNAKNTIYLQMNSLKPDDTAVYYCRDVNRDYWGQGTQVTVSS
notes: C-term myc-His6 tag
B7: 15B2 (VHH)
VHH: EVQLVESGGGLVQAGGSLRLSCVVSGIPSSIRAMAWYRQAPGRQRDWVATIYSPSGSAVYADSVKGRFTISSDNAKSTIYLQMNSLKPDDTAVYYCRDVNRDYWGQGTQVTVSS
notes: C-term myc-His6 tag
B8: 13C9 (VHH)
VHH: EVQLVESGGGLVQAGGSLRLSCVASGIPSIHAMAWYRQAPGKQRDWGATTYSRGGTTYNDSAKGRFTISRDNAKKTVYLQMNSLKPEDTAVYYCRDVNRDYWGQGTQVTVSS
notes: C-term myc-His6 tag
B9: 13C2 (VHH)
VHH: EVQLVESGGGLVQAGGSLRLSCAASGSTFSINRMAWYRQSPGKQRELVAAVDNDDNTEYSDSVAGRFTISRDNAKNAVHLQMNSLRLEDTAVYYCNAKQLPYLQNFWGQGTQVTVSS
notes: C-term myc-His6 tag
B10: 15C9 (VHH)
VHH: EVQLVESGGGLVQAGGSLKLSCVNSGIPSTLRAMAWYRQAPGRQRDWVATSSNTGGTTYDDSVKGRFTISRDNAKNTVYLQMNSLKPEDTGVYYCRDVNRDLWGQGTQVTVSS
notes: C-term myc-His6 tag
B11: 15D10 (VHH)
VHH: EVQLVESGGGLVQPGGSLKLSCAASGFTFSSYRMYWVRQAPGKGLEWVSAIKPDGSITYYADSVKGRFTISRDNAKNTVYLQMNSLKPEDTAVYYCATDCGVPGFGWTFSSWGQGTQVTVSS
notes: C-term myc-His6 tag
B12: 17B7 (VHH)
VHH: EVQLVESGGGLVQAGGSLRLSCAASGIISSFRTMAWYRQAPGKQRDWVATIGSDGLANYADSVKGRFTISRDNAKKTVYLQMNSLKPEDTAVYFCRDINRDYWGQGTQVTVSS
notes: C-term myc-His6 tag
B13: 15B6 (VHH)
VHH: EVQLVESGGGLVQPGGSLRLSCAASGIIGSFRTMAWYRQAPGNQRDWVATIGSAGLASYADSVRGRFTLSRDNAKKTVYLQMNSLKPEDTAIYYCRDINGDYWGQGTQVTVSS
notes: C-term myc-His6 tag
B14: 30D10 (VHH)
VHH: EVQLVESGGGLVQAGGSLTLSCTASETTVRIRTMAWYRQPPGNQREWVATIGSNGFATYPDSVKGRFTISRDNAKNTVYLQMNSLKPEDTAVYYCRDINRDIWGQGSQVTVSS
notes: C-term myc-His6 tag
B15: 17C6 (VHH)
VHH: EVQLVESGGGLVQAGGSLTLSCAASGSTSSLDIMAWYRQAPEKQRELVASVSGGGNSDYASSVKGRFTISGDTAKSTLYLQMNSLKPEDTAMYYCYGRDYYYMPFWGQGTQVTVSS
notes: C-term myc-His6 tag
B16: 27F2 (VHH)
VHH: EVQLVESGGGLVQAGGSLRLSCAASGIISSFRTLAWYRQAPGKQRDWVATISSAGGTAYADAVKGRFTISISRDNVEYTVDLQMDSLKPEDTAVYYCRDINGDYWGQGTQVTVSS
notes: C-term myc-His6 tag
B17: 47E5 (VHH)
VHH: EVQLVESGGGLVQAGGSLRLSCAASASIFGFDSMGWYRQAPGNERILVAIISNGGTTSYRDSVKGRFTIARDNAKNTVSLQMNSLKPEDTAVYYCNLDRRSYNGRQYWGQGTQVTVSS
notes: C-term myc-His6 tag
B18: 15D2 (VHH)
VHH: EVQLVESGGGLVQAGGSLRLSCVVSGVFGPIRAMAWYRQAPGKQRDWVATIGSSGHPVYTDSVKGRFTFSKDGAKNTVYLQMNSLKPEDTAVYYCRDINRDYWGQGTQVTVSS
notes: C-term myc-His6 tag
B19: 15E10 (VHH)
VHH: EVQLVESGGGLVQAGGSLKLSCVASGITFFRYTMGWYRQAPGKERELVAEISSADEPSFADAVKGRFTISRDNAKNTVVLQMNGLKPEDTAVYYCKGSWSYPGLTYWGKGTLVTVSS
notes: C-term myc-His6 tag
B20: 15H4 (VHH)
VHH: EVQLVESGGGLVQAGGSLTLSCAPSESTVSFNTVAWYRQAPGEQREWVATISRQGMSTYPDSVKGRFTISRDNAKNTVYLQMNNLKPEDTAVYYCRDINHDIWGRGSQVTVSS
notes: C-term myc-His6 tag
B21: 17D7 (VHH)
VHH: EVQLVESGGGLVQPGGSLRLSCAASGFTLDYCAIGWFRQAPGKEREGVSCISSSDGSTYYADSVKGRFTISRDNAKNTVYLQMNSLKPEDTAVYYCATDRGSGTCYADFGSWGQGTQVTVSS
notes: C-term myc-His6 tag
B22: 27E7 (VHH)
VHH: EVQLVESGGGLVQAGGSLRLSCAASGITFRRYDMGWYRQFPGKERELVATILSEGDTNYVDPVKGRFTISRDNAKNTVYLQMNDLKPEDTAVYYCNGVWRAIGRTYWGQGTQVTVSS
notes: C-term myc-His6 tag
B23: 17A5 (VHH)
VHH: EVQLVESGGGLVQPGGSLRLSCAASGFTFDDYSMSWVRQATGKGLEWVSGISWNGGSTNYADSVKGRFTISRDNVKNTLYLQMNSLKSEDTAVYYCAKDLGNSGRGPYTNWGQGTQVTVSS
notes: C-term myc-His6 tag
B24: 46G1 (VHH)
VHH: EVQLVESGGGLVQAGGSLRLSCAASGRTFSDDAMGWFRQAPGKERECVASLYLNGDYPYYADSVKGRFTISRDNAKNAVILQMNNLKTEDTAVYYCAAKPGWVARDPSQYNYWGQGTQVTVSS
notes: C-term myc-His6 tag
B25: 46E4 (VHH)
VHH: EVQLVESGGGLVQAGGSLRLSCAASGRAFKDDAVGWFRQAPGKERECVASMYLDGDYPYYADSVKGRFTISRDNAKNAVILQMNNLKTEDTAVYYCAAKPGWVARDPSEYNYWGQGTQVTVSS
notes: C-term myc-His6 tag
B26: 15G10 (VHH)
VHH: EVQLVESGGGLVQAGGSLSLSCAASGRFFSTRVMAWYRQTPGKQREFVASMRGSGSTNYADSARGRFAISRDNAKNTVYLQMNSLKPEDTAVYYCRDINEDQWGQGTQVTVSS
notes: C-term myc-His6 tag
B27: 27A3 (VHH)
VHH: EVQLVESGGGLVQAGGSLSLSCVASGRFFSTRVMAWYRQTPGKQREFVASMRGSGSTNYADSVRGRFAISRDNAKNTVYLQMNTLKPEDTAVYYCRDINEDQWGQGTQVTVSS
notes: C-term myc-His6 tag
B28: 15A2 (VHH)
VHH: EVQLVESGGGLAQAGGSLSLSCAASGRFFSTRVMAWYRQTPGKQREFVASMRGSGSTNYADSARGRFAISRDNAKNTVYLQMNSLKPEDTAVYYCRDINEDQWGQGTQVTVSS
notes: C-term myc-His6 tag
B29: 17H10 (VHH)
VHH: EVQLVESGGGLVQAGGSLSLSCSASGRFFSTRVMAWYRQTPGNQREFVATIHSSGSTIYADSVRGRFAISRDNAKNTVYLQMRSLKPEDTAVYYCRDINADQWGQGTQVTVSS
notes: C-term myc-His6 tag
B30: 17A8 (VHH)
VHH: EVQLVESGGGLVQAGGSLSLSCAASGRFFSTRVMAWYRQTPGKQREFVASMRGSGSTNYADSVRGRFAISRDNAKNMVYLQMNTLKPEDTAVYYCRDINEDQWGQGTQVTVSS
notes: C-term myc-His6 tag
B31: 17A6 (VHH)
VHH: EVQLVESGGGLVQPGGSLRLSCAASGFTFSSYAMSWVRQAPGKGLEWVSAISSGGGSITTYADSVKGRFTISTDNAKNTLYLQMSSLKPEDTALYYCAKARSSSSYYDFGSWGQGTQVTVSS
notes: C-term myc-His6 tag
B32: 17B5 (VHH)
VHH: EVQLVESGGGLVQTGGSLRLSCAASGSTFRTDMMGWYRQAPGKQREFVASITKFGSTNYADSVKGRFTISNDNAKDTVYLQMNSLKSEDTAVYYCRNFNRDLWGQGTQVTVSS
notes: C-term myc-His6 tag
B33: 14D4 (VHH)
VHH: EVQLVESGGGLVQAGDSLRLSCAASGRALDTYVMGWFRQAPGDGREFVAHIFRSGITSYASSVKGRFTISRDNAKNTVYLQMASLKPEDTAAYYCAARPSDTTWSESSASWGQGTQVTVSS
notes: C-term myc-His6 tag
B34: 17G11 (VHH)
VHH: EVQLVESGGGLVQAGGSLRLSCAASGSTFSINRWGWYRQAPGKQRELVAAIDDGGNTEYSDFVNGRFTISRDNPETAVHLQMNSLKLEDTAVYYCNAKQLPYLQNFWGQGTQVTVSS
notes: C-term myc-His6 tag

These binders were tested against T1, recombinant human ErbB2/Fc chimera (human, UniProt P04626 23-652) (assay: ELISA, coated ErbB2/Fc).
T1 construct: bought from R&D Systems; also called rhErbB2-Fc; rhErb2-Fc; Fc part of the bought chimera not given; not described

Binding result, binds:
B1
B2
B3
B4
B5
B6
B7
B8
B9
B10
B11
B12
B13
B14
B15
B16
B17
B18
B19
B20
B21
B22
B23
B24
B25
B26
B27
B28
B29
B30
B31
B32
B33
B34

Source: patent US20150232562A1 (Ablynx, published 2015)
